Each block holds one substance with its values, some of them ahead of it.
Tests used:
Assay in all cases: bacterial two-hybrid (β-galactosidase activity)
Settings in all cases: in vivo, E. coli BTH101; T18 and T25 fusions; parent: est. 1400; read off a plot
FleN^A139V = molecular target: FleN^A139V
FleN^L260R = molecular target: FleN^L260R
FleN^R218C = molecular target: FleN^R218C
FleN^V24L = molecular target: FleN^V24L

- response (Miller unites) (FleN^A139V): 870
Substance: wild-type FleN A139V

- response (Miller unites) (FleN^L260R): 1000
Substance: wild-type FleN L260R

- response (Miller unites) (FleN^R218C): 1200
Substance: wild-type FleN R218C

- response (Miller unites) (FleN^V24L): 130
Substance: wild-type FleN V24L

Source: PMC12345224
